First the molecules themselves.
B1: Human Ecto-TMEM219 (receptor)
chain: THRTGLRSPDIPQDWVSFLRSFGQLTLCPRNGTVTGKWRGSHVVGLLTTLNFGDGPDRNKTRTFQATVLGSQMGLKGSSAGQLVLITARVTTERTAGTCLYFSAVPGILPSSQPPISCSEEGAGNATLSPRMGEECVSVWSHEGLVLTKLLTSEELALCGSR
notes: Produced in E. coli by Genescript; In the ELISA it was detected with anti 6x His tag HRP, so it probably carries a His tag; also called extracellular domain of the TMEM219 receptor
B2: E14 (antibody, V domains shown)
VH: QVQLVQSGAEVKKPGASVKVSCKASGYTFSNYGISWVRQAPGQGLEWMGWINTYNGNTNYAQKLQGRVTMTTDTSTSTAYMALRGLRSDDTAVYYCARDRGYSSSPYYYYYGMDVWGQGTTVTVSS
VL: DIQMTQSPSSLSASIGDRVTITCRASQGISNYLAWFQQKPGKAPKSLIYAASSLQSGVPSKFSGSGSGTDFTLTISSLQPEDFATYYCQQYNSYPFTFGPGTKVDIK
notes: From Trianni Mouse hybridomas: chimeric mAb with human VH and VK and mouse constant domains; also called anti-IGFBP3 mAb E14
B3: E20 (antibody, V domains shown)
VH: B2 VH
VL: DIQMTQSPSSLSASVGDRVTITCRASQGIRNDLGWYQQKPGKAPKRLIYAASSLQSGVPSRFSGSGSGTEFTLTISSLQPEDFATYYCLQHNSYPYTFGQGTKLEIK
notes: From Trianni Mouse hybridomas: chimeric mAb with human VH and VK and mouse constant domains; also called anti-IGFBP3 mAb E20
B4: E24 (antibody, V domains shown)
VH: B2 VH with S30T, T53A, D73V, S75Y, A82E, G85S
VL: AIQMTQSPSSLSASVGDKVTITCRASQGIRNALGWYQQKPGTAPKLLIYAASSLQSGVPSRFSGSGSGTDFTLTISSLQPEDSATYYCLQDYNYPLTFGGGTKVEIK
notes: From Trianni Mouse hybridomas: chimeric mAb with human VH and VK and mouse constant domains; also called anti-IGFBP3 mAb E24
B5: E01 (antibody, V domains shown)
VH: QVQLVESGGGVVQPGRSLRLSCAASGFTFSSYGMHWVRQAPGKGLEWVAVISYDGSNKNYVDSVKGRFTISRDNSKNTLYLQMNSLRAEDTAVYYCARGGEYFYYYGLDVWGQGTTVTVSS
VL: EIVMTQSPATLSLSPGERATLSCRASQSVSSSSLSWYQQKPGQAPRLLIYGASTRATGIPARFSGSGSGTDFTLTISSLQPEDFAVYYCQQDYNLPLTFGGGTKVEIK
notes: From Trianni Mouse hybridomas: chimeric mAb with human VH and VK and mouse constant domains; also called anti-IGFBP3 mAb E01
B6: E02 (antibody, V domains shown)
VH: B2 VH
VL: B5 VL with S33H, P96T, L97I, G101Q, K104R, V105L
notes: From Trianni Mouse hybridomas: chimeric mAb with human VH and VK and mouse constant domains; also called anti-IGFBP3 mAb E02
B7: E19 (antibody, V domains shown)
VH: B5 VH
VL: AIQLTQSPSSLSASVGDRVTITCRAGQGISSALAWYQQKPGKAPKILIYDASSLESGVPSRFSGSGSGTDFTLTISSLQPEDFATYYCQQFNNYPSTFGQGTKLEIK
notes: From Trianni Mouse hybridomas: chimeric mAb with human VH and VK and mouse constant domains; also called anti-IGFBP3 mAb E19
B8: E08 (antibody, V domains shown)
VH: B2 VH
VL: B5 VL
notes: From Trianni Mouse hybridomas: chimeric mAb with human VH and VK and mouse constant domains; also called anti-IGFBP3 mAb E08
B9: M1 (antibody, V domains shown)
VH: QVQLQESGPGLVKPSETLSLTCTVSGGSISTYYWSWIRQPPGKGLEWIGYIYYSGSTNYNPSLKSRVTISVDTSKNQFSLKLSSVTAADTAVYYCARYDIVTGYPHYYYYVMDVWGQGTTVTVSS
VL: B4 VL with K18R, Q27R
notes: Only variable domains are tied to M1; also called anti-IGFBP3 mAb M1; Anti-IGFBP3 M1

Where a chain is given by its changes, count along the chain named.

In one test the target is T1, Recombinant human IGFBP3 (human, UniProt P17936 28-291).
T1 construct: also called rhIGFBP3; hIGFBP3
T1 sequence (P17936 28-291 limits assumed): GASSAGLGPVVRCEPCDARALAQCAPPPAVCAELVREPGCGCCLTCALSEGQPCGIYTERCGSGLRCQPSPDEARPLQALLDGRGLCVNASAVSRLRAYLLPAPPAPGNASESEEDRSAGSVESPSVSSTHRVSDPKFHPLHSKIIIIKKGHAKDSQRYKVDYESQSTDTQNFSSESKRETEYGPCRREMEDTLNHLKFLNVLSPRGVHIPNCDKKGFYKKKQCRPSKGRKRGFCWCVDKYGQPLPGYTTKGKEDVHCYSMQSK
Kind of test: ELISA: plate coated with rhIGFBP3 4 µg/ml, His-tagged ecto-TMEM219 10 µg/ml added, detection with anti-HisTag HRP, absorbance. On the technique in general: In an ELISA, binding on a coated surface is turned into a signal by an enzyme label.
Procedure: We also employed a blocking reagent solution (3% BSA in PBS) and a diluent solution (0.5% BSA, 0.05% Tw in PBS).
Plate was incubated 90 minutes at 37° C. and washed with PBS (300 μl/well) and incubated with the blocking reagent (200 μl/well) 2 hours at room temperature. […] After washing steps, plate was then incubated at room temperature for 1 hour with anti 6× His tag HRP diluted 1:2000 in Diluent solution (50 μl/well). ELISA plate was then read after adding visualization solution at ELISAreader and adsorbance was measured.
As to B1, the binding result is “binds”.

Another test deals with T1, Recombinant human IGFBP3. Kind of test: Octet BLI; mAb captured via Fc on anti-mouse/anti-human IgG Fc biosensor, human IGFBP3 at 150 nM.
Procedure: The binding affinity measurements were performed using an Octet instrument (Octet BMIA), which is a Biolayer Interferometry (BLI) platform based on Biomolecular Interaction Analysis.
A word on the Kd: it is the concentration at which binding is half-saturated. On to B2, for which the Kd was 0.85 nM. For the molecule B3, the Kd amounted to 0.85 nM. Regarding B4, the Kd was greater than 0.001 nM. In the case of B5, the Kd is 1.2 nM. In the case of B6, the Kd is greater than 0.001 nM. In the case of B7, the Kd was determined as 0.69 nM. For B8, the Kd came to 0.61 nM. Same read-out and setting: the figure for B9 is greater than 0.001 nM.

The values above are taken from US20230039165A1 (ENTHERA S R L, published 2023).
